Paper PMC10019453, “Integrative structural analysis of the type III secretion system needle complex from Shigella flexneri” (Protein Science : A Publication of the Protein Society, 2023)

Molecular target: T1, MxiD[SctC] (Shigella flexneri, UniProt Q04641 23-566)
T1 construct: the last 18 residues (S549-Y566) are not resolved; 16 subunits in the connector (N0, N1), 15 in the OM ring (N3, secretin, S domain); also called secretin; OM ring
T1 sequence: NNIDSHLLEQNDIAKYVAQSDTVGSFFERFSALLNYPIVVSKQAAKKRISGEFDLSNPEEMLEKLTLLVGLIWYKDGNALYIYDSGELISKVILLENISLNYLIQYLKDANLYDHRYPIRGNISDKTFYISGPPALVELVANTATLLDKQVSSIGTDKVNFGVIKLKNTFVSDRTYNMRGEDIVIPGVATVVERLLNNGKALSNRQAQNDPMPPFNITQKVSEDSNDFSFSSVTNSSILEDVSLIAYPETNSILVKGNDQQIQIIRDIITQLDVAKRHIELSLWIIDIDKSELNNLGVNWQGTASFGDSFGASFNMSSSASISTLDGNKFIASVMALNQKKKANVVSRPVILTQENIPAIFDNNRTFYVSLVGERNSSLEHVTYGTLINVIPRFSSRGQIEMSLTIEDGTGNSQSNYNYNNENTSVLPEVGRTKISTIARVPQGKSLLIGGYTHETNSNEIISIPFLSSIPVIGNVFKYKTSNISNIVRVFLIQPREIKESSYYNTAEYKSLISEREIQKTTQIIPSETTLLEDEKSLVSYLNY
Experiment: cross-linking; BS3 cross-linking mass spectrometry of the isolated needle complex; 0.2-0.3 mM BS3, 30 min, room temperature; 2% FDR at residue-pair level
Settings: both partners purified

B1: MxiM[SctG] (natural protein)
chain: CALKSSSNSEKEWHIVPVSKDYFSIPNDLLWSFNTTNKSINVYSKCISGKAVYSFNAGKFMGNFNVKEVDGCFMDAQKIAIDKLFSMLKDGVVLKGNKINDTILIEKDGEVKLKLIRGI
modifications: lipidated N-terminus
notes: MxiM[SctG], pilotin of the Shigella flexneri T3SS; also called pilotin; pilot protein
- binding result: binds
